Measurements: the DeepSol protein solubility set

Assay: soluble on expression in E. coli; label from the status in PepcDB or PDB records

Row | Sequence | soluble on expression in E. coli
1 | MGSDKIHHHHHHMKAIVFGGSGFIGSHIVNSLEADSVAYYSLEKGTNVKRNDAVWIQGDVTDYSKVEASMAGYDTVFFAVEDWAADEARNREILLNGIKNVVSAIKKASTDQKLVSFSMINQPSYPLEYFRTKRLVEDNTRVLKNGLVVRLSIVFGDGDHFTDRFVKLAEQVSHLPEEGNLAPVYVGDVVTVVNSIIKREGVYDICSNDNLPLIRIINYIRKNIGKKEIGSVKLEKGLSMLTETGLFSRYEAELMFQDYYRETSILDRYVKNPTSYLDFLRSILVEHTT | not soluble
2 | MEAVVDVVDVEEVVEDVDVVVVDQDAVAVVDLNVVVLVVELVAVLDVVLAADHAVVDVVADVVVDAVDVEVEVVSVVPFKNFELMKPIVHLGLKKDHLMTNVSPIIYSPFIYYHDS | not soluble
3 | GPGSMQVINENSLREFYAHVYPVELVTQWLSYRLSQPRLSAGSSVAVVKGEPTAVSGEESKDGVRHVLGIKAEPCDAVGAAAGADDEDKEWLNGKGAAAAEGYLARREFCFTLIGDIFTRFRSYRSSEELRAELVRCFPEKIDVGAVYNIRPNQKQGLANVFPVERELVFDIDMSDYDNVRSCCSGKSICSYCWAWMSCAAHVLHTVLRDDFGFKYILPVFSGRRGIHLWVCDRRARRMTNDERTALVGYLTVVAPKTLRSTIVADLANHRLIHPTIRHVLRTQLDRAFTSLFVASSSDNPNNIQHHPTAAYIVHDATSAVLKLGRRDALNRFQQHVHFQQGNVLDWATYLRALGSEQEATDILHAVQLLLMYPRLDEHVSTRRDHLLKLPFCVHPGTASLCCPLEWDEVDGFHPTEDAPKLHEMLLSRSLDVRWTLPLERMLKDMRTDEDENSS | not soluble
4 | MGSSHHHHHHSSGLVPRGSHMKLQFNLKAYFKTSADPTPAKDAIAALFEEANSTLLTRGAPEGQGAKVTEWKLGEDRIELTLQSGRYVRVHDAIFRLRKQLAEALGKKYKIGIRGIEVESFIIKVPADHELRMLKVPYIKSMENIEGGIQLELEVGEAEMKNRVPDRILTLLEEKIEAAQYGAKAEHWNLLWQREPMEHPFKEDPTQAMMKEGWLKRGSSRGQWIHGPQSARIFRTFEKIVLEELLEPLGYREMIFPKLVTWEVWMKSGHAKGVYPEIYYVCPPQTRDPDYWEEVADYYKVTHEVPTKLIKEKIAEPIGGMCYAQCPPFWMYVAGETLPNEEIPVKVFDRSGTSHRYESGGIHGIERVDEFHRIEIVWIGTKEEVLKCAEELHDRYMHIFNDILDIEWRKARVTPWFMAQEGLLGLAEENTVGTTDYEACLPYRGPDGEWLEFQNVSINGDKYPKGFNVKLQSGDELWSGCSGVGLERWAAVFLAQKGLDPANWPEEFRNRVGEMPKGIRFL | soluble
5 | MGSDKIHHHHHHMSADKYEVIIIGAGLAGLSAAYKLAKAGMEVVVVERGDYPGSKNLSGGVLYSRILDQLIPDFWEEAPIERYITNYLTTLMTPTDYVNIEYKDQELAKPPYNAVTVLRAKFDRWLAEKAEEAGAMIVTGVKVDKVLKEGGRITGITTGDEEMLADVVIAADGINSFIAQEAGLRGEIEPAHLAVGAKALIELPQQAIEERFRLEGNEGTAYAMLGDATHGVAGGGFFYTNRESLSIGVVMRLDDLVKEKVKPFEVLDDLLRHPLVAPLVKDGTMTEYGAHLTAEGGVHMVPSQLHTDGMLIVGDAAGFTINSGLVIRGMDLAIGSGMAAAEAVLEAKERGDYSAAALSSYQRKLDEGFIMKDLKLYAKAVDFMETDRLYKNYAPLANHLFGRIYNHDLSPKEHLWKSVLGSVQESGISWLDLARDGIKGVRAL | not soluble
6 | MNMAEVSKNQVEKALETVIYPGSGKNIVALGMVSEIFIADAKAYFSITVPADKASEMEPLRLAAERAAKSVEGIAGAVVALTADRKPGQQQPAPAGPTPARPAAATGRPAAAPGRPTPQPGSSKVGVPGVRAIIAVASGKGGVGKSTTAVNLALGLQALGLKVGMLDADIYGPSLPRLLKISGRPKQQEDRIILPMENYGLKVMSMGFLVDEEAAMIWRGPMVQSALMQMLREVAWGELDVLVLDMPPGTGDAQLTIAQQVPLAGAVIVSTPQDLALLDARKGITMFRKVEVPLLGVIENMSYFIAPDTGARYDIFGHGGAKAEAERIGVPFLGEVPLTISIREMSDAGTPVVVAEPDGPQAAIYREIAEKVWARMGADERKAAPKIVFELEHHHHHH | not soluble
